Where two headings read alike, the source gives them in different places.
Key:
[1] = physchem; format: physicochemical; conditions: pH 7.4
Experimental: For logD analysis, the octanol/PBS partition coefficients of the ^99mTc-tricarbonyl labeled BBN conjugates were determined at pH 7.4 utilizing the “shake-flask method” [25, 26]. The logD value for the reference compound [^99mTc][Tc(CO)3(BBN-13)] was −0.54 ± 0.04 while for the glycated compound [^99mTc][Tc(CO)3(12)] it was −1.26 ± 0.16 (Table 2). As expected, these measurements confirmed the increased hydrophilicity of the glycated ^99mTc-labeled BBN conjugate due to the introduction of the sorbitol moiety.
The lipophilicities (LogD) of [^99mTc][Tc(CO)3(L)] (L = 12, 13) were determined by their partition coefficient between n-octanol and PBS (pH 7.4) utilizing the “shake-flask method” [25, 26]. PBS and n-octanol were shaken overnight to saturate each phase. After separation of the layers by gravity, equal volumes (500 µL) of each layer were taken and transferred into an Eppendorf tube and 5 µL (~45 kBq) of the radiolabeled peptide solution were added to the PBS/n-octanol mixture. […] Aliquots of 300 µL were removed from the octanol and PBS phases and the radioactivity was measured in the γ-counter (n = 3 in triplicates). The lipophilicity was calculated as the log value of the average ratio between the radioactivity in the organic fraction (octanol) and the PBS fraction from the samples.

[2] = Biodistribution in nude mice bearing PC-3 tumor xenografts; conditions: female, athymic nude (Fox-1^nu), mouse, in vivo, iv, 10 pmol, total radioactivity
Experimental: Biodistribution studies were performed in nude mice bearing PC-3 tumor xenografts at 1 h post-injection (p.i.) of the radiotracers (n = 6; Table 3, Figure 4).
All animals were treated according to the European Union rules on animal care. Animal experiments were approved by the Austrian Ministry of Sciences (BMBWF-66.009/0122-V/3b/2019). Approximately 5 × 10^6 PC-3 cells in 100 µL serum-free medium were subcutaneously injected into flanks of 8-week-old, female, athymic mice (Fox-1^nu, Charles River Laboratories). Xenografts were allowed to grow for 16 days (approx. size: 250 mm^3) and mice were intravenously injected via the tail vein with 0.1 µM radiolabeled peptide (10 pmol, ~42 kBq, 100 µL physiological saline) alone (baseline experiments) or co-injected with 2000-fold excess BBN(1–14) (20 nmol; blocking experiments). One hour p.i. of the radiotracers, mice were sacrificed and organs, tumor and blood were removed. Radioactivity in organs and tissues was quantified using a γ-counter (2480 Wizard^2, PerkinElmer). Organs and tissues were wet-weighted and percentage of injected dose per gram was calculated (% ID/g). Statistical analysis (2-way ANOVA) was performed by GraphPad Prism.

[3] = molecular target: T1, Gastrin-releasing peptide receptor (GRPR) on PC-3 cells (Homo sapiens, UniProt P30550); assay: Receptor saturation assay; format: binding; conditions: 4 °C, 2 h, nonlinear regression, mean ± SEM, n = 2–3 in triplicate
T1 construct: using GRPR expressing PC-3 cells; host or cells: PC-3 human prostate adenocarcinoma cells (intact, in 6-well plates, 4 °C)
Experimental: The receptor affinity (Kd) and maximum receptor occupancy (Bmax) were determined by receptor saturation assays using increasing amounts of the radiolabeled peptides (Figure 3). […] Differences in specific molar activities (MBq/mol) could account for this observation and cannot be entirely excluded even though both ^99mTc-radiopeptides were prepared under identical conditions. Because this study aims at the investigation of differences in the pharmacokinetics of the radiopeptides (e.g., rate and route of excretion) rather than in tumor uptake, we continued with the evaluation of both compounds in vivo.
Cell culture reagents were purchased from Thermo Fisher Scientific (Vienna, Austria) or Sigma-Aldrich (Vienna, Austria). Human prostate adenocarcinoma cells (PC-3) were purchased from ATCC and cultivated in RPMI-1640 medium supplemented with 10% heat-inactivated fetal bovine serum (FBS), 2 mM L-glutamine, 100 units/mL penicillin and 100 μg/mL streptomycin under humidified atmosphere (37 °C, 5% CO2) until minimum 80% at confluence. […]
Receptor binding assays were performed as previously published. […] Non-specific receptor binding was determined using an excess of natural bombesin (2.5 μM/well for concentrations of the radiopeptide <10 nM, and 10 μM/well for higher concentrations). […] The obtained fractions were measured in a γ-counter.

[4] = tested on: GRPR expressing PC-3 cells; assay: Cell binding and internalization studies; format: cell-based, human
Experimental: Receptor binding and cell internalization properties of the ^99mTc(CO)3-labeled BBN derivatives were investigated with GRPR expressing PC-3 cells (n = 2–3 in triplicate). Despite the slightly slower uptake kinetics of [^99mTc][Tc(CO)3(12)], both radiolabeled compounds [^99mTc][Tc(CO)3(L)] […] The membrane bound fraction was less than 5% AD/10^6 cells for both compounds. The receptor-specific cell uptake was verified by incubating the cells with the radiopeptides in the presence of 1000-fold excess of natural bombesin as blocking agent.
Cell culture reagents were purchased from Thermo Fisher Scientific (Vienna, Austria) or Sigma-Aldrich (Vienna, Austria). […]
Internalization studies were performed as previously published. […] Non-specific receptor binding was determined by incubating the cells with the radiotracers and 1000-fold excess of natural bombesin (250 pmol; 100 μL per well) as the receptor blocking agent. […] The receptor-bound radioactivity was obtained by incubating the cells twice for 5 min with an ice-cold acidic glycine solution (100 mM NaCl, 50 mM glycine, pH 2.8; 1 mL) on ice followed by removal of the supernatant. […] All fractions were measured in a γ-counter and calculated as percentage of the applied dose (n = 2–3 in triplicate).

T1 sequence (P30550 whole entry): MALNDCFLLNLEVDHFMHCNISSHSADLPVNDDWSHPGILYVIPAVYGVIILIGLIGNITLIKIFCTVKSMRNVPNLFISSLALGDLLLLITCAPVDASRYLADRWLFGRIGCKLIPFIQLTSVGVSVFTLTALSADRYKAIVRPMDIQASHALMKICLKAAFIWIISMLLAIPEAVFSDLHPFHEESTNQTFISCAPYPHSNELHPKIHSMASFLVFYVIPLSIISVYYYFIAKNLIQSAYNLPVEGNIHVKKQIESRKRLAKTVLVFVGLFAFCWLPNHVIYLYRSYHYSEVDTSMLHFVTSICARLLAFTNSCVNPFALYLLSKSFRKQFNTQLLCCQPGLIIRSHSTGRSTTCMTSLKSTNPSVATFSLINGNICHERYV

With CCCC[C@H](NC(=O)[C@H](CC(C)C)NC(=O)[C@H](Cc1c[nH]cn1)NC(=O)CNC(=O)[C@@H](NC(=O)[C@H](C)NC(=O)[C@H](Cc1c[nH]c2ccccc12)NC(=O)[C@H](CCC(N)=O)NC(=O)CCNC(=O)CCNC(=O)CCNC(=O)Cn1cc(CN[C@@H](CCCCNC(=O)CCCOC[C@H](O)[C@@H](O)[C@H](O)[C@H](O)CO)C(=O)O)nn1)C(C)C)C(N)=O [[^99mTc][Tc(CO)3(12)], metal not drawn] the logD [1] was -1.26 ± 0.16, the tissue uptake at 1 h ([2]; 1 h p.i., i.v. 10 pmol, PC-3 xenograft, GRPR-positive, mean ± SD, n = 5–6, read-out: Tumor uptake) was 2.72 ± 0.88 %ID/g and the tissue uptake at 1 h ([2]; 1 h p.i., i.v. 10 pmol, mean ± SD, n = 5–6, read-out: Blood uptake) was 1.22 ± 0.4 %ID/g. For the same compound, the tissue uptake at 1 h ([2]; 1 h p.i., i.v. 10 pmol, mean ± SD, n = 5–6, read-out: Bone uptake) was 0.44 ± 0.28 %ID/g, the tissue uptake at 1 h ([2]; 1 h p.i., i.v. 10 pmol, mean ± SD, n = 5–6, read-out: Brain uptake) was 0.09 ± 0.07 %ID/g and the tissue uptake at 1 h ([2]; 1 h p.i., i.v. 10 pmol, mean ± SD, n = 5–6, read-out: Heart uptake) was 0.5 ± 0.23 %ID/g. For the same compound, the tissue uptake at 1 h ([2]; 1 h p.i., i.v. 10 pmol, mean ± SD, n = 5–6, read-out: Kidney uptake) was 4.32 ± 0.97 %ID/g, the tissue uptake at 1 h ([2]; 1 h p.i., i.v. 10 pmol, mean ± SD, n = 5–6, read-out: Liver uptake) was 2.75 ± 0.74 %ID/g and the tissue uptake at 1 h ([2]; 1 h p.i., i.v. 10 pmol, mean ± SD, n = 5–6, read-out: Lung uptake) was 1.38 ± 0.83 %ID/g. For the same compound, the tissue uptake at 1 h ([2]; 1 h p.i., i.v. 10 pmol, mean ± SD, n = 5–6, read-out: Muscle uptake) was 0.35 ± 0.24 %ID/g, the tissue uptake at 1 h ([2]; 1 h p.i., i.v. 10 pmol, mean ± SD, n = 5–6, read-out: Spleen uptake) was 1.16 ± 0.17 %ID/g and the tissue uptake at 1 h ([2]; Adrenal uptake) was 5.34 ± 1.85 %ID/g. The tissue uptake at 1 h ([2]; Colon uptake) was 5.85 ± 1.29 %ID/g, the tissue uptake at 1 h ([2]; Intestine uptake) was 3.71 ± 1.48 %ID/g and the tissue uptake at 1 h ([2]; Pancreas uptake) was 17.1 ± 3.25 %ID/g. The tissue uptake at 1 h ([2]; Stomach uptake) was 3.03 ± 0.88 %ID/g, the increase of hydrophilicity (logD) vs non-glycated reference was 0.7 log units and the Kd ([3]; 1–100 nM radiopeptide) was 21.3 ± 4.6 nM. For the same compound, the Bmax ([3]; maximum receptor occupancy) was 0.91 ± 0.06 nM, the “cellular binding and uptake in the presence of blocking agent” value ([4]; 1000-fold excess of natural bombesin) was < 0.5 % AD/10^6 cells and the membrane bound fraction ([4]; acidic glycine wash fraction, n = 2–3 in triplicate) was “less than 5 % AD/10^6 cells”.
